Our source for the fold binding activity relative to DPP6-T values is paper PMC4599408.

The test has as its target GST-Kv4.3 NT (human). Put plainly: pull-down.

Chain of GST-Kv4.3 NT (human) (Q9UK17 whole entry): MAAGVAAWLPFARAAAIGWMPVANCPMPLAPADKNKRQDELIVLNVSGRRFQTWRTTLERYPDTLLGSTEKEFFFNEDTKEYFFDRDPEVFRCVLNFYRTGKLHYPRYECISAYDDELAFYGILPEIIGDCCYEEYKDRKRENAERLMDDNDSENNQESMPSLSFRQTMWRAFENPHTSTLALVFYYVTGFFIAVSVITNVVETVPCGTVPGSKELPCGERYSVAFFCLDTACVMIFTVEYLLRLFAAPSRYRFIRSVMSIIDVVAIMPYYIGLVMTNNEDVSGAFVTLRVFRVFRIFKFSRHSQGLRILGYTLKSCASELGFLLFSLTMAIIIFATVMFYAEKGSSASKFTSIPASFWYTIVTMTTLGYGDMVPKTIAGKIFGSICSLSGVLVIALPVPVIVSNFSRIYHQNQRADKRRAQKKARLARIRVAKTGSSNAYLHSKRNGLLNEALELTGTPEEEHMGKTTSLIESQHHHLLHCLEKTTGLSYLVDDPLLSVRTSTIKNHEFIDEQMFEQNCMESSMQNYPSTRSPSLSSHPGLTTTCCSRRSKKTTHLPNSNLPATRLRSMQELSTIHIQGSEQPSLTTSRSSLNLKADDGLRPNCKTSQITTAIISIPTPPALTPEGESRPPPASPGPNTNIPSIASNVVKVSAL

In turn, “DPP6-T p.H332R variant, in vitro translated and radiolabeled (natural protein)” yielded a fold binding activity relative to DPP6-T of more than 2 fold.
